Source: paper PMC12631010, “5‐Thiohistidine N‐Acetyltransferase from Proteiniphilum Saccharofermentans” (Chembiochem, 2025)

Legend:
purified protein [1] = substrate: CC(=O)SCCNC(=O)CCNC(=O)[C@H](O)C(C)(C)COP(=O)(O)OP(=O)(O)OC[C@H]1O[C@@H](n2cnc3c(N)ncnc32)[C@H](O)[C@@H]1OP(=O)(O)O; assay: purified protein; assay type: biochemical, Proteiniphilum saccharofermentans; settings: 1000 μM 5-thiohistidine; otherwise same
purified protein [2] = substrate: N[C@@H](Cc1[nH]cnc1S)C(=O)O; assay: purified protein; assay type: biochemical, Proteiniphilum saccharofermentans; settings: 500 μM acetyl-CoA, 0.2 μM enzyme; phosphate pH 8.0, 20 mM NaCl, 2 mM TCEP, 26 °C (buffer and temperature from the activity assay); pH 8.0; 26.0 °C

B1: 5THNAT (Proteiniphilum saccharofermentans) (protein)
chain: MYLVSGSSLFYGWFKKNMDSIKGTVEIYDLDEYNYPKFRGQLIGLYLHAFTTGDYSQHIDRETVEVTLDDILQDGSGCMAFVGNRLVGLLAAFPLKRDPDFPADTCRDIPVGEAIYIAEVMVHADYRGRRIASKMLNTYLQEKSENYSYAVIRVWEKNMPALELYKKLGFLPVATISQQKLSANKEEFVMNKLYLAVKIIDN
notes: recombinant, produced in Escherichia coli, Ni-NTA purified (tag details not in main text)
Km (purified protein [1]): 73 µM
Km (purified protein [2]): 58 µM
